The results in this text go back to paper PMC8034659.

Series [1] deals with T1, TrfA wt (G254D/S267L, 33 kDa) (plasmid RK2, UniProt P07676 98-382, G254D;S267L).
T1 sequence: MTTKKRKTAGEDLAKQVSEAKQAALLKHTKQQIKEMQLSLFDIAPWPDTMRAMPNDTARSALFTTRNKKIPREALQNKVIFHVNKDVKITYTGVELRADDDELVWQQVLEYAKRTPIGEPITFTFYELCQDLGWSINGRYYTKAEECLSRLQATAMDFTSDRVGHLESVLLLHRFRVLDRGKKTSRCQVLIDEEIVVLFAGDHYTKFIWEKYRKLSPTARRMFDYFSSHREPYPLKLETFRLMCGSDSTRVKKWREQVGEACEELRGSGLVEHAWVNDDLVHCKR
Nature of the series: crosslinking-MS.

Series [2] addresses T1, TrfA wt (G254D/S267L, 33 kDa). Nature of the series: UV crosslinking.

B1: 37T (dsDNA)
DNA 1: AGTGATGACAGATGAGGGGCGC
DNA 2: GCGCCCCTCATCTGTCATCACT
modifications: C2dT at T15 of bottom strand
As to B1, in series [1], the binding result is on record as “binds”.

B2: 53T (dsDNA)
DNA 1: CCTGCGGTATTGACACTTGAGGGGCGCGACTACTGACAGATGAGGGGCGCGATCCTTGACACTTGAGGGGCAGAGTGATGACAGATGAGGGGCGCACCTATTGACATTTGAGGGGCTGTCCACAGGCAG
DNA 2: CTGCCTGTGGACAGCCCCTCAAATGTCAATAGGTGCGCCCCTCATCTGTCATCACTCTGCCCCTCAAGTGTCAAGGATCGCGCCCCTCATCTGTCAGTAGTCGCGCCCCTCAAGTGTCAATACCGCAGG
modifications: 5-Br-dU at T53 of top strand
Turning to B2, in series [2], the binding result is listed as “binds”.

B3: 58B (dsDNA)
DNA 1: B2 DNA 1
DNA 2: B2 DNA 2
modifications: 5-Br-dU in bottom strand: CACTC[BrdU]GCCCC
For the molecule B3, the binding result in series [2] was “binds”.

B4: 69B (dsDNA)
DNA 1: B2 DNA 1
DNA 2: B2 DNA 2
modifications: 5-Br-dU in bottom strand: CTCAAG[BrdU]GTCAAGG
On to B4, for which the binding result in series [2] is reported as “binds”.

B5: 71B (dsDNA)
DNA 1: B2 DNA 1
DNA 2: B2 DNA 2
modifications: 5-Br-dU in bottom strand: CAAGTG[BrdU]CAAGG
For the molecule B5, the binding result in series [2] is “binds”.

B6: 57T (dsDNA)
DNA 1: B2 DNA 1
DNA 2: B2 DNA 2
modifications: 5-Br-dU at T57 of top strand
As for B6, the binding result in series [2] is listed as “binds”.

B7: 56T (dsDNA)
DNA 1: B2 DNA 1
DNA 2: B2 DNA 2
modifications: 5-Br-dU at T56 of top strand
Turning to B7, the binding result in series [2] is “binds”.

B8: 40T (dsDNA)
DNA 1: AGTGATGACAGATGAGGGGCGC
DNA 2: GCGCCCCTCATCTGTCATCACT
modifications: C2dT at T18 of bottom strand
In the case of B8, in series [1], the binding result is given as “binds”.

B9: 3T (dsDNA)
DNA 1: AGTGATGACAGATGAGGGGCGC
DNA 2: GCGCCCCTCATCTGTCATCACT
modifications: C2dT at T3 of top strand
As to B9, in series [1], the binding result is on record as “binds”.
